This is an account of results in patent US20090288225A1, “Novel Aromatic Acyltransferase Genes” (Aomori Prefecture, priority 2006, published 2009).

A short description of series [1]: UDP-glucose:hydroxycinnamate 1-O-glucosyltransferase activity of recombinant proteins from E. coli. The conditions noted are these: against all four types of hydroxycinnamic acid used. In kind it is biochemical. As for the experimental part:
The transformed E. coli was shaking-cultured overnight in 3 ml of LB medium containing 50 μg/ml kanamycin and 34 μg/ml chloramphenicol. This culture broth (500 μl) was inoculated into LB medium (50 ml) and shaking-cultured until absorbance at 600 nm reached 0.4. Then, isopropyl-β-D-thiogalactoside (IPTG) was added to give a final concentration of 0.4 mM. The cells were shaking-cultured at 25° C. for 16 hr and then harvested by refrigerated centrifugation (8000 rpm, 4° C., 20 min). CtGT11-4 protein was partially purified from the cells using Ni-NTA mini-column according to the method recommended by the manufacturer. […]
For measuring enzyme activity, a 30 μl reaction solution containing 100 mM potassium phosphate buffer (pH 7.4), 30 pmole of UDP-glucose, 30 pmole of hydroxycinnamic acid and 15 μl of recombinant protein solution was reacted at 30° C. […] The enzyme reaction products were analyzed by reversed-phase high performance liquid chromatography (Shiseido NanoSpace system) using Develosil C30-UG-5 (1.5 i.d.×250 mm). […] The eluted materials were detected with a PDA detector, and the resultant data were analyzed to thereby quantitatively determine 1-O-acyl-β-D-glucose. […]
LeGT13-20 and LeGT13-30 genes were expressed using pET30Ek/LIC System (Novagen). […] Resultant several clones were analyzed to confirm the nucleotide sequences thereof, and then transformed into E. coli BL21-CodonPlus(DE3)-RP. […]

Series [2] is described as follows: Acyltransferase activity of purified 3′AT, substrates preternatin C5 and 1-O-p-coumaroyl-β-D-glucose. To be noted: 3′AT activity. In kind it is biochemical, butterfly pea (Clitoria ternatea). As to the method: A reaction solution (20 μl) containing 100 mM phosphate buffer (pH 6.5), 0.4 mM anthocyanin (4 μl), 0.5 mM 1-O-acyl-β-D-glucose (4 μl) and an enzyme solution (8 μl) was reacted at 30° C. The reaction was terminated by adding 4 μl of 1M aqueous hydrochloric acid solution. After addition of 24 μl of 5% acetonitrile containing 0.05 M TFA, the reaction solution was filtered with Millex-LH filter (Millipore) and then analyzed by HPLC by feeding a 10 μl aliquot.
HPLC analysis of anthocyanin acyltransferase reaction products were performed with Develosil ODS-UG-5 column (3.0 i.d.×250 mm; Nomura Chemical) at a column temperature of 35° C. Against an initial solvent that was 0.05 M trifluoroacetate (TFA)-containing 5% acetonitrile (MeCN) aqueous solution, 0.05 M TFA-containing 40% MeCN was added with a linear concentration gradient from 14 to 86% (20 min) and the reaction products were eluted at a flow rate of 0.5 ml/min. The reaction products were detected with PDA and their molecular weights were confirmed by LC-MS/MS. […]

B1: LeGT13-30: lobelia 1-O-acyl-β-D-glucose synthase, 486 amino acid residues, SEQ ID NO: 18 (protein)
chain: MGSLQGTTTVENLTHVFLVSFPGQGHVNPLLRLGKILASKGLLVTFSAPEMVGEIIKGANKYISDDELTPIGDGMIRFEFFSDSLGNTKEDNALRGNMDLYMPQLATFAKKSLSDILVKHQHHGRPVACLINNPFIPWISELAEEFNIPSAVLWVQSCASFSAYYHYHHNLVPFPTENEPERDVQLPSMPLLKYDEIPGFLLPSSPYGFLRRAILGQFKLLSKPICILVESFQELEDDCINYLSTLCPIKPIGPLFINPNVKTGSSIRGDFMKVEDCIDWLNTRADSSVVYISFGSIVYVKQEQITEIARGLADSGLSFLWAFKQPGVDMGLKPPSLPDGFLEEVKGRGKVVEWCSQEAVLGHPAVSCFMSHCGWNSTMEALSSGVPVAAFPIWGDQVTDAKFLVDEFKVGIRMCRGEADINKKVVPREEIARCLLAATSGPKAEELRRNALKWKKAAADSVGAGGSSDRNLEEFVGSIKKGVIGH
modifications: Lobelia erinus cv.Riviera Midnight Blue; Amino acid sequence of UDP-glucose hydroxycinnamic acid 1-O-glucosyltransferase
Consider B1, for which the glucosyltransferase activity entry in series [1] is “glucosyltransferase activity was confirmed”.

B2: 3′AT protein: acyltransferase purified from butterfly pea petals, transfers aromatic acyl group to glucosyl group at position 3′ of anthocyanin (after Mono Q) (protein)
chain: GTIVEFLPGFDGPLPFVLETGYVGVGEGEDVQVFYYFVESENNPNEDPLMLWLTGGPGCSAFSGLALEIGPLIFKREEYNGGLPNLILRPHSWTKVSSIIFVDLPVSTGFTYARTDAAAQRSDWTLVHHAHEFLRKWLIDHPKFLQNELYIGGDSYSGIPIPVIVQEISQENEKGIQPWINLQGYILGNAITTRREKGYSIPFAHGMALISDELYESLRKNCKGEYLNVDPENVLCSRDIDSYSKATSRISFAHILERTCNSGDIKTSLRRSTIQRHHTKKFLNTNLKLPPLTCRTYANFQCGLWANDDNVRSALHIHKGSIGEWHRCSIRLPFTSDIPNSFEYHVNLSRKGYYRSLIYSGDHDMMVPFLGTQAWIRSLNYSIVDDWRPWNTNGQVAGYTRTYSNRMTYATIKGGGHTAPEFKPEECFAMYSRWISKRPLYENNTMSSYTNLASIL
As to B2, in series [2], the specific activity turned out to be 1492.6 pkat/mg.
